# According to the supplement of paper PMC10065799, “High-throughput profiling of sequence recognition by tyrosine kinases and SH2 domains using bacterial peptide display” (eLife, 2023):
# Experiments:
# [1] = tested on: AncSZ; experiment: phosphorylation enrichment, bacterial display (enrichment ratio); higher = better substrate or ligand; peptides without Tyr show the background
# [2] = target: EPHB1 (UniProt P54762); experiment: as above
# [3] = target: EPHB2 (UniProt P29323); experiment: as above
# [4] = target: FGFR1 (UniProt P11362); experiment: as above
# [5] = target: FGFR3 (UniProt P22607); experiment: as above
# [6] = tested on: Fer (mouse); experiment: as above
# [7] = target: Fes (UniProt P07332); experiment: as above
# [8] = target: Fyn (UniProt P06241); experiment: as above
# [9] = target: Hck (UniProt P08631); experiment: as above
# [10] = target: Jak2 (UniProt O60674); experiment: as above
# [11] = target: MERTK (UniProt Q12866); experiment: as above
# [12] = tested on: c-Abl (mouse); experiment: as above
# [13] = tested on: c-Src; experiment: as above
# [14] = target: Grb2 SH2 (UniProt P62993); experiment: SH2 binding enrichment of the phosphorylated peptide, bacterial display (enrichment ratio); higher = better substrate or ligand; peptides without Tyr show the background
# [15] = target: SHP2-C SH2; experiment: as above
# [16] = target: c-Src SH2; experiment: as above
# 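Wherever SH2 binding enrichment of the phosphorylated peptide, bacterial display is given: peptide library displayed on the E. coli surface as eCPX fusions, selected cells deep-sequenced, score is each peptide's frequency after selection divided by its frequency in the input.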
# 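Wherever phosphorylation enrichment, bacterial display is given: 11-residue human phosphosite peptides and single-mutation variants displayed on the E. coli surface, counted by deep sequencing, each peptide's frequency after selection divided by its frequency in the unselected input library; frequency after pTyr selection over input frequency; kinase dosed for 20-30% of maximal phosphorylation in three min.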
# Sequence of FGFR3 (P22607 whole entry, looked up): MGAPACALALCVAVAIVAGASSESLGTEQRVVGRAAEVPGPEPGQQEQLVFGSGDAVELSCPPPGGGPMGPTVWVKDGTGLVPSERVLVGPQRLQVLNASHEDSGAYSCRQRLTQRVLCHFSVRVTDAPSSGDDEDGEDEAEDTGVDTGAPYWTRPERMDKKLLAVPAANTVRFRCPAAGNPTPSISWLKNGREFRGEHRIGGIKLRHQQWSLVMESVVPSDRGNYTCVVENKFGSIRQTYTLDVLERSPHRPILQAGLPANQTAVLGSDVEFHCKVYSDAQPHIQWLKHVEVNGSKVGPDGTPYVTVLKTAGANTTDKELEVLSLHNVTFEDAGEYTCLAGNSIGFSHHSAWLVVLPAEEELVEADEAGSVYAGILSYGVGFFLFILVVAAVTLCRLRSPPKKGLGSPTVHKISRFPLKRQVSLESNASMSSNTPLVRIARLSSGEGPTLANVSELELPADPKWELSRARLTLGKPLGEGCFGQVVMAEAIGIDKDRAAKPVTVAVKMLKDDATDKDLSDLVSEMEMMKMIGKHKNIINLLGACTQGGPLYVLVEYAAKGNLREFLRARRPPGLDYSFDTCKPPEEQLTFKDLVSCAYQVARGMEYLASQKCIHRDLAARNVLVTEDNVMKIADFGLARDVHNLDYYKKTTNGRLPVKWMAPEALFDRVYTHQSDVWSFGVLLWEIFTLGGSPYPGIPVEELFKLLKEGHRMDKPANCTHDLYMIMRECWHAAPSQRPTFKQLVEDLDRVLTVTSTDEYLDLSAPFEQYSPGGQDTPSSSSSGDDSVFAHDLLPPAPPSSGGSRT
# Sequence of EPHB2 (P29323 whole entry, looked up): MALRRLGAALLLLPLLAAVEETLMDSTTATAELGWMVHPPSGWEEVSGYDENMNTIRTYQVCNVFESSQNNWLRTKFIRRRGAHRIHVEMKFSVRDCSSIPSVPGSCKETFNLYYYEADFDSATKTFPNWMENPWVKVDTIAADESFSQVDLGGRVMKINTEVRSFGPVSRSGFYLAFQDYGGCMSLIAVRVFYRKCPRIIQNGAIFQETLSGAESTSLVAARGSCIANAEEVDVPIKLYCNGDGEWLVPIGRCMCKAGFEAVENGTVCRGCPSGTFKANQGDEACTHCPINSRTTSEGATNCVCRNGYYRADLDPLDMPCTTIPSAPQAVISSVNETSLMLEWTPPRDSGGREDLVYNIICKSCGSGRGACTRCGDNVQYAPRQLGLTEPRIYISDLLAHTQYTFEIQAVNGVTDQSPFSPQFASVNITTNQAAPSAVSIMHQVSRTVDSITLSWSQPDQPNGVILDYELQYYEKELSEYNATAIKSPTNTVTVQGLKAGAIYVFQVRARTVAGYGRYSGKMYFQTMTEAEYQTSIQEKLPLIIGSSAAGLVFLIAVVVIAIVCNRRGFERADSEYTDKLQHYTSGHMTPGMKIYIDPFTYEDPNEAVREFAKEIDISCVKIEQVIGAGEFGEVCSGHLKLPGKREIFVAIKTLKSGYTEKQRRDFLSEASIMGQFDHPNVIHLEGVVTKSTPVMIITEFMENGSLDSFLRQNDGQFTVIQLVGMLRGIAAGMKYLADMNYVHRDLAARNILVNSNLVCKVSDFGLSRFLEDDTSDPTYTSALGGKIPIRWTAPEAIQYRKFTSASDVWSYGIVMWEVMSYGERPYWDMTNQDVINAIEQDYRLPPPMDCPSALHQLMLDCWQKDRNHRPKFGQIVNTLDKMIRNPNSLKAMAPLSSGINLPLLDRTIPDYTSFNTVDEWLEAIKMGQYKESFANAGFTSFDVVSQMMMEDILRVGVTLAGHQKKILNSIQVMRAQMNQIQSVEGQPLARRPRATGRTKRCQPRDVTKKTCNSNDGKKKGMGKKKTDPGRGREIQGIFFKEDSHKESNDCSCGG
# Sequence of FGFR1 (P11362 whole entry, looked up): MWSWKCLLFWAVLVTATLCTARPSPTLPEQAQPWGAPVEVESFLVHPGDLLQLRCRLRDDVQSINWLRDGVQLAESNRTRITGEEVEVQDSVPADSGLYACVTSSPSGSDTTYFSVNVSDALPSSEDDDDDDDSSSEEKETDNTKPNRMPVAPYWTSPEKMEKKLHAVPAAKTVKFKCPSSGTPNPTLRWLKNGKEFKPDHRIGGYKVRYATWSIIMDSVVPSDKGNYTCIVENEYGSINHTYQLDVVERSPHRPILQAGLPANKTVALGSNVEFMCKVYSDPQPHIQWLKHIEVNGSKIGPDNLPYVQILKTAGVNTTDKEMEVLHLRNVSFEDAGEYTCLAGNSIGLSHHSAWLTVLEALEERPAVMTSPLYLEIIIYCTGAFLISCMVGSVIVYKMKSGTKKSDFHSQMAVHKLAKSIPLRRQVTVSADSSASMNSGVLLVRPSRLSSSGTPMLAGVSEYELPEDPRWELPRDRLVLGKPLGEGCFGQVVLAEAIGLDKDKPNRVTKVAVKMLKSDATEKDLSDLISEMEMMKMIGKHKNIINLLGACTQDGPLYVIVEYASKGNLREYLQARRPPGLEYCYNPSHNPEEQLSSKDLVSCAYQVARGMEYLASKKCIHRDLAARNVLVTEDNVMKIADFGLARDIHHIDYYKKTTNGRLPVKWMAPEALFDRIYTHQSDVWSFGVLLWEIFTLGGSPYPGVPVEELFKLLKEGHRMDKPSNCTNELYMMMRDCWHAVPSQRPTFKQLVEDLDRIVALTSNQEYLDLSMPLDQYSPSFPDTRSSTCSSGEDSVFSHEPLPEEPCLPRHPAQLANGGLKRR
# Sequence of Jak2 (O60674 whole entry, looked up): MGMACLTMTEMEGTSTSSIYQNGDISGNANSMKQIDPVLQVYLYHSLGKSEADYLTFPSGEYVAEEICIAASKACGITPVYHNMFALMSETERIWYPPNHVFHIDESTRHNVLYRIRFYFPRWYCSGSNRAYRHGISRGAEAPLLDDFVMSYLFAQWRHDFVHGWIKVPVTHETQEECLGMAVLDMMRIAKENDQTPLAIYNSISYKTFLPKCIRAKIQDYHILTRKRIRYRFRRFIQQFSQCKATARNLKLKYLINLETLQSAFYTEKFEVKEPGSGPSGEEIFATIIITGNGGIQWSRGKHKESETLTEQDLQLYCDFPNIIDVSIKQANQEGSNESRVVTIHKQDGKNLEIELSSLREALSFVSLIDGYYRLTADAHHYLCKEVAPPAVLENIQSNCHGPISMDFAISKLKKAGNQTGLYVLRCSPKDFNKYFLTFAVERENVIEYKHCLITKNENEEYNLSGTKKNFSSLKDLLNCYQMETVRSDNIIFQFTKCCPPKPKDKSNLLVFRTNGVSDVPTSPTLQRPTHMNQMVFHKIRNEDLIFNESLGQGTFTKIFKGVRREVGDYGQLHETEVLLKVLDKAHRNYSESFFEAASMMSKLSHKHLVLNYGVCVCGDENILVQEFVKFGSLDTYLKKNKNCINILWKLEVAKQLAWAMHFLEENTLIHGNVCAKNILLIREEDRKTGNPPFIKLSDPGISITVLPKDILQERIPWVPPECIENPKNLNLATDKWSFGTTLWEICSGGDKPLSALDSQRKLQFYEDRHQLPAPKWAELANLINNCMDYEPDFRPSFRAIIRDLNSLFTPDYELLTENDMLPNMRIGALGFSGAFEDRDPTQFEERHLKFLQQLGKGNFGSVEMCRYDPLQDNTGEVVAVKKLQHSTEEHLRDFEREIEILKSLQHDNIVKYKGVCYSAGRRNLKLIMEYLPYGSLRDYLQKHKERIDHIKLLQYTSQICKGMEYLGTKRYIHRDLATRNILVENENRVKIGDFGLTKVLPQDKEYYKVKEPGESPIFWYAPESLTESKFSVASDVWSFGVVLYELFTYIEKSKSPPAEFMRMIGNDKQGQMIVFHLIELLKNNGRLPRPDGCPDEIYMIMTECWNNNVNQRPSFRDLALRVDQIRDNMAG
# Sequence of Hck (P08631 whole entry, looked up): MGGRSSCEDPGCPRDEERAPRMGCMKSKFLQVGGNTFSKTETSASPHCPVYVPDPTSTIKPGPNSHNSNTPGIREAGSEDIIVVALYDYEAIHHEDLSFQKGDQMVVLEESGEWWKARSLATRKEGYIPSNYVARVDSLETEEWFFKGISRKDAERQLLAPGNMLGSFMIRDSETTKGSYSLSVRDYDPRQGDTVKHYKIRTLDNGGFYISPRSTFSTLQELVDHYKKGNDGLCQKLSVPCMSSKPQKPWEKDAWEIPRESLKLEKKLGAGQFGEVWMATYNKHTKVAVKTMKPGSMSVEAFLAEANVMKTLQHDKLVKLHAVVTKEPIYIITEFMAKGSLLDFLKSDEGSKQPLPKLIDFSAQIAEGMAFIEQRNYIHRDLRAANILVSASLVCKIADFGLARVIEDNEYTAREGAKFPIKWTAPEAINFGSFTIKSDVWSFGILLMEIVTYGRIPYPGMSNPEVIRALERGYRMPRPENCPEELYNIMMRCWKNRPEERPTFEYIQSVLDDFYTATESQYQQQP
# Sequence of Fyn (P06241 whole entry, looked up): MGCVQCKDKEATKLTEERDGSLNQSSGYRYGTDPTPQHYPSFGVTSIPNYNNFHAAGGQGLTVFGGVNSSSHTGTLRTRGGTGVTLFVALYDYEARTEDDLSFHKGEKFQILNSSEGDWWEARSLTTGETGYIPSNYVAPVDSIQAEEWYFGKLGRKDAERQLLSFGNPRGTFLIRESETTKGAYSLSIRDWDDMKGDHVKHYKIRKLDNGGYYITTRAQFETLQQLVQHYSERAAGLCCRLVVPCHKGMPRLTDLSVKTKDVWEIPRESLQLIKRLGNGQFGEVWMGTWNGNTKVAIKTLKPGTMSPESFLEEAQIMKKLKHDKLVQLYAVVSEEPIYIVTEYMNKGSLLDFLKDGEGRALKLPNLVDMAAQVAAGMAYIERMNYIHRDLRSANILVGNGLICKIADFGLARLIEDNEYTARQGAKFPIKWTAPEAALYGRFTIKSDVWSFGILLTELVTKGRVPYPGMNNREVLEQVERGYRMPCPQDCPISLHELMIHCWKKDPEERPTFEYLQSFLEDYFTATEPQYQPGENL
SH2 binding enrichment [14],SH2 binding enrichment [15],SH2 binding enrichment [16],Sequence,phosphorylation enrichment [1],phosphorylation enrichment [2],phosphorylation enrichment [3],phosphorylation enrichment [4],phosphorylation enrichment [5],phosphorylation enrichment [6],phosphorylation enrichment [7],phosphorylation enrichment [8],phosphorylation enrichment [9],phosphorylation enrichment [10],phosphorylation enrichment [11],phosphorylation enrichment [12],phosphorylation enrichment [13]
0.865,0.812,0.445,LDYNEYFRGLN [HPRT1_Y198_D201G],2.67,1.28,1.37,2.77,1.85,1.06,1.95,1.6,2.6,3.42,0.733,0.847,0.892
0.73,0.728,0.946,SSFSRYIMMPN [LEF1_Y114_G113R_YF],0.738,0.471,0.556,0.599,0.617,0.484,0.806,0.509,0.559,0.812,0.588,0.626,0.485
0.668,0.964,0.464,QRASDYFSQQM [GBP6_Y333_A331S_YF],1.29,1.56,0.854,0.684,1.39,0.667,1.49,0.662,0.866,1.02,0.711,1.28,0.632
0.883,0.746,0.394,KKYPDYIQSAM [SGMS2_Y59_I62S],0.839,0.543,0.396,0.484,0.487,0.373,0.772,0.443,0.413,0.716,0.392,0.595,0.428
0.838,0.75,0.574,VAFVYYKSIGP [ADGRL4_Y302],1.41,0.678,0.653,0.656,0.872,0.658,1.6,0.432,0.524,1.3,0.442,0.907,0.465
0.839,0.638,0.842,GLRSYYETSKM [MAGED2_Y449],0.592,0.475,0.584,1.44,1.13,0.465,0.762,0.417,0.656,0.784,0.546,0.534,0.591
1.96,2.08,1.43,KFVVVYFREID [IL17RB_Y447_YF],1.2,0.508,0.523,0.49,0.691,0.446,1.27,0.436,0.538,1.17,0.362,0.724,0.408
1.78,1.8,0.789,CFVFFYSFLLK [PTEN_Y178_R173C_YF],0.997,0.473,0.72,0.423,0.865,0.487,1.03,0.459,0.578,0.987,0.557,0.86,0.519
1.07,0.617,0.721,PTKNDYWAMLA [WWOX_Y287],1.64,1.78,1.61,7.82,4.3,0.447,1.5,0.695,0.705,1.12,0.443,0.939,0.912
0.484,0.624,0.478,TEVIWYKGDEE,1.72,0.516,0.606,0.445,0.704,0.393,1.55,0.445,0.335,1.45,0.51,0.691,0.601
0.67,0.564,0.523,ADMETYLLEKS [MYH7_Y266_I263M],0.949,0.612,0.581,0.573,0.582,0.454,1.11,0.573,0.549,0.983,0.447,0.864,0.869
0.862,0.737,0.486,SELVRYDARVH [MET_Y971],0.595,0.388,0.494,0.479,0.627,0.442,0.739,0.456,0.581,0.687,0.443,0.523,0.433
0.953,0.884,0.691,ENAGYYFQVSA,1.17,0.578,0.566,0.94,1.06,0.595,1.37,0.527,0.448,1.43,0.602,0.603,0.444
1.03,3.06,1.07,GLSAPYVKIHL [SYT2_Y309_D307A],0.747,0.426,0.423,0.436,0.714,0.527,0.785,0.337,0.443,0.994,0.43,0.509,0.383
1,0.48,0.446,ALECLYHREKR [TEKT5_Y195],1.26,0.618,0.675,0.484,0.734,0.451,1.15,0.512,0.583,0.884,0.406,0.927,0.571
0.902,1.02,0.563,SEVVPYEPPEV [TP53_Y220_V216E],1.28,0.604,0.621,0.601,0.81,0.585,1.33,0.583,0.582,1.16,0.473,0.784,0.529
0.936,1.33,3.04,SMGHRYIEVFR [HNRNPF_Y82_K87R],0.622,0.451,0.576,0.53,0.506,0.483,0.691,0.335,0.453,0.688,0.474,0.514,0.367

SH2 binding enrichment [14],SH2 binding enrichment [15],SH2 binding enrichment [16],Sequence,phosphorylation enrichment [1],phosphorylation enrichment [2],phosphorylation enrichment [3],phosphorylation enrichment [4],phosphorylation enrichment [5],phosphorylation enrichment [6],phosphorylation enrichment [7],phosphorylation enrichment [8],phosphorylation enrichment [9],phosphorylation enrichment [10],phosphorylation enrichment [11],phosphorylation enrichment [12],phosphorylation enrichment [13]
0.862,3.64,1.26,GITVTYTIPKK [UBA5_Y372_A371T],0.933,0.537,0.557,0.522,0.563,0.497,0.96,0.413,0.54,0.994,1.49,2.12,0.4
0.864,1.02,1.42,KDFNKYVAFIE [KDM4B_Y31_YF],0.799,0.43,0.429,0.399,0.581,0.434,0.836,0.513,0.505,0.744,0.424,0.629,0.456
1.14,1,0.431,HNGVSYYINLC [IGF2R_Y2024],1.43,0.805,0.541,0.605,1.1,0.577,1.5,0.581,0.597,1.35,0.513,1.15,0.419
0.837,0.497,0.817,IQKWEYVPLGT [FAH_Y244_P249T],0.954,0.768,0.532,1.06,0.723,0.416,0.866,0.475,0.428,1.23,0.328,0.564,0.384
0.984,0.821,0.681,DKNSSYFADWF [TUBB8_Y340_L345F],0.992,0.676,0.507,2.44,1.62,0.345,1.01,0.479,0.397,1.32,2.04,0.613,0.435
0.708,0.564,1.44,GFSRHYEDGFP [CTNND1_Y217_YF],0.619,0.432,0.451,0.352,0.563,0.574,0.739,0.428,0.435,0.608,0.442,0.405,0.335
0.747,0.66,0.605,DPLLTYRFPPN [LMNA_Y481_K486N],0.882,0.446,0.455,0.766,0.861,0.472,0.751,0.51,0.503,0.768,0.497,0.649,0.65
0.731,0.556,0.518,CEQELYSQLVY [WAS_Y102_W97C],1.9,4.86,5.74,3.8,3.67,11.2,1.81,6.54,6.75,1.22,5.03,1.14,5.28
0.88,0.956,0.708,TQNAVYSAANY [DDX5_Y535_G533A],0.643,2.46,3.99,0.586,0.619,2.8,0.924,8.89,11.1,0.527,5.57,4.56,6.96
0.712,0.767,0.466,ETLLYYGCRRS [POR_Y564],0.959,0.63,0.506,0.795,0.71,0.638,0.897,1.89,5.24,1.67,1.18,0.883,3.48
0.928,0.973,1.85,FSNPAYFVLEG [INPPL1_Y986_N982S_YF],1.01,0.642,0.548,6.43,4.24,0.564,0.895,0.416,0.451,3.86,3.43,0.865,0.809
0.697,0.55,0.381,MRNDLYQTPLH [NFKB1_Y582],1.69,1.19,2.44,0.454,0.57,4.12,0.845,1.8,4.21,0.693,2.62,5.88,1.94
0.828,0.709,0.403,EGDGVYTLNNE [HP_Y125],1.26,0.602,0.633,0.595,0.822,0.658,1.16,6.33,3.07,0.934,0.509,0.817,4.26
0.714,0.461,3.83,LRSRVYEVPVE [SLC26A3_Y756_N753S],1.01,0.773,1.03,0.722,0.833,2.09,0.91,0.962,1.25,0.795,1.66,0.719,0.708
0.711,2.78,10.3,TTPYNYSYIFK [RAB14_Y8_A4T],0.895,9.01,2.71,1.24,0.893,0.97,0.658,0.593,0.861,0.655,5.37,0.706,0.712
1.63,1.19,1.16,GVTLLYFGRDN [ADGRD1_Y85_Y89D_YF],0.887,0.633,0.424,0.488,0.737,0.481,1.04,0.353,0.516,0.937,0.321,0.643,0.398
